PMC13138755, “Potential Rad54 separation of function mutation highlights unique roles during homologous recombination”

Molecular target: T1, Rad54 (Saccharomyces cerevisiae, UniProt P32863 1-898)
T1 sequence: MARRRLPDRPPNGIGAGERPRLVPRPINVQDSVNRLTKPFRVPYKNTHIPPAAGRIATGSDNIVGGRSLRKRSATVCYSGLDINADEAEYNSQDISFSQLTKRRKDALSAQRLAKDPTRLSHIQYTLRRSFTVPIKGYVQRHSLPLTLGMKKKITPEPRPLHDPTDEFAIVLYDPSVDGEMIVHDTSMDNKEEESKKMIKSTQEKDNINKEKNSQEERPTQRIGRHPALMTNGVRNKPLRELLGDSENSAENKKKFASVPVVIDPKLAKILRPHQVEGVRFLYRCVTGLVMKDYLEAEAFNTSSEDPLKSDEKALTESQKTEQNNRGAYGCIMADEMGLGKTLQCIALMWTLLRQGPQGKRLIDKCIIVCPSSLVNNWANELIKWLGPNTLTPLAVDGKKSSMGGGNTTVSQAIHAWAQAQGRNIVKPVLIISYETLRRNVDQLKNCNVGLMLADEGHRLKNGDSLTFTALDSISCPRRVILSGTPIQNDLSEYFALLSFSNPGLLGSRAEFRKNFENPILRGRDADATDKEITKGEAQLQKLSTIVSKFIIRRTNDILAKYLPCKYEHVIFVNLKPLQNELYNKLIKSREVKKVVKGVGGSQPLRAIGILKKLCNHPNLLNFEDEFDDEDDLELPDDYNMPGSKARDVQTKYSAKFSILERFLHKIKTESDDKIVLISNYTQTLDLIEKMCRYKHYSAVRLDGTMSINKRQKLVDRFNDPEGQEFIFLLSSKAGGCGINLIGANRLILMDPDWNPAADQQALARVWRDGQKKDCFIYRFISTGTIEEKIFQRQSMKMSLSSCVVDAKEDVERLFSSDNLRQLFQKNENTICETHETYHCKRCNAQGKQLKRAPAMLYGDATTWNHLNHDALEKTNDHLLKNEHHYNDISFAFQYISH
Assay: EMSA; apparent Kd; Hill fit; 3 mM Mg2+; EMSA: 35 mM Tris-Cl pH 7.5, 3 mM MgCl2, 50 mM KCl, 1 mM DTT, 10% glycerol, 10 nM DNA, 30 C, 5 min, 8% native PAGE in 0.5x TBE; DNA curtains: HR buffer (composition not given), 10 nM GFP-Rad54, flow 0.2 mL/min
Settings: protein: recombinant; tags: GFP-GST (N-term); label: Atto647N 5' on strand 1; blunt

B1: 90 bp dsDNA (90-mer) (dsDNA)
DNA 1: GATGTTCTGCTGGATATGCACTTTTCCGGGCTGACGTACACCGTGCTCAGCCTGTTTTTCAGCGATCCGGATATGCATCCGCTGGATTTC
DNA 2: GAAATCCAGCGGATGCATATCCGGATCGCTGAAAAACAGGCTGAGCACGGTGTACGTCAGCCCGGAAAAGTGCATATCCAGCAGAACATC
  Kd: 21 nM
